Data from the nanobody polyreactivity screen of Harvey et al. (2022).

Experiment: yeast display, Sf9 membrane polyspecificity reagent, FACS + sequencing; frameworks hold sequencing errors
Method in brief: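 Sorting gates, low and high (top ~1%), were placed on anti-HA fluorescence to track expression and on streptavidin fluorescence to track reagent binding. A clone's polyreactivity label is taken from the gate it came out of. The reagent was 10% biotinylated, detergent-solubilized Sf9 membrane, applied for 1 hour at 4 °C to galactose-induced yeast display cells.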

Sequence | polyreactivity (PSR sort gate)
QVQLVESGGGLVQAGGSLRLSCAASGSIFVFNAMGWYRQAPGKERELVAAISNGDGTNYADSVKGRFTISRDNAKNTVYLQMNSLKPEETAVYYCAAVWTTLIVIEYDYWGQGTQVTVSS | low polyreactivity
QVQLVESGGGLVQAGGSLRLSCAASGSIFVFYDMGWYRQAPGKERELVATISSGGGGTYYTDSVKGRFTISRDNAKNTVYLQMNSLKPEDTAVYYCAAEGDKYGKGDGYWGQGPQVTVSS | low polyreactivity
QVQLVESGGGLVQAGGSLRLSCAASGSIFVGFARGWYRQAPGKERELVAAISWSGDSTYYADSVKGRVTISRDNAKKTVYLQLNSLKPEDTAVYYCAVDYAEIGPRREVEYDYWGQGTQVTVSS | low polyreactivity
QVQLVESGGGLVQAGGSLRLSCAASGSIFVGNAMGWYRQAPGKERELVAAINSGGSTYYADSVKGRFTISRDNAKNTVYLQMNSLKPEDTAVYYCAAEGTYSYYLYEYWGLGTQVTVSS | low polyreactivity
QVQLVESGGGLVQAGGSLRLSCAASGSIFVGNVMGWYRQAPGKERELVAAISRTGGTYYADSVKGRFTISRDNAKNTVYLQMNSLKPEDTAVYYCNKVSLRQSRMYYWGQGTQVTVSS | high polyreactivity
QVQLVESGGGLVQAGGSLRLSCAASGSIFVGYAMGWYRQAPGKERELVAAISWSGDSTYYADSVKGRFTISRDNAKNTVYLQMNSLTPEDTAVYYCAVDYAEIGPRPEVEYDYWGQGTQVTVSS | low polyreactivity
QVQLVESGGGLVQAGGSLRLSCAASGSIFVGYAMGWYRQAPGKERELVAAISWSGDSTYYADSVKGRFTISRDTAKNTVYLQMNSLKPEDTAVYYCAVDYAEIGPRREVEYDYWGQGTQVTVSS | low polyreactivity
QVQLVESGGGLVQAGGSLRLSCAASGSIFVGYGAMGWYRQAPGKERELVAAITSGTSTYYADSVKGRFTISRDNAKNTVYLQMNSLKPEDTAVYYCAARGFLKYVTEFDYWGQGTQVTVSS | low polyreactivity
QVQLVESGGGLVQAGGSLRLSCAASGSIFVGYTMGWYRQAPGKERELVAAITRRGGSTYYADSVKGRFTISRDNAKNTVYLQMNSLKPEDTAVYYCAAEVRRYVIVPYYYWGQGTQLTVSS | high polyreactivity
QVQLVESGGGLVQAGGSLRLSCAASGSIFVHNAMGWYRQAPGKERELVAAITWSGGSTYYADSVKGRFTISRDNAKNTVYLQMNSLKPEDTAVYYCAAEDVAAQWAYESPTSYWYYYIYEYWGQGTQVTVSS | low polyreactivity
QVQLVESGGGLVQAGGSLRLSCAASGSIFVHYAMGWSRQAPGKERELVAAITTSGGSTYYADSVKGRFTISRDNAKNTVYLQMNSLKPEDTAVYYCNARAVRYPFTGNYWAQGTQVTVSS | high polyreactivity
QVQLVESGGGLVQAGGSLRLSCAASGSIFVINPMGWYRQAPGNERELVAAISDSGTGTYYADSVKGRFTISRDNAKNTVYLQMNSLKPEDTAVYYCAADYYYRYRIYDYWGQGTQVTASS | low polyreactivity
QVQLVESGGGLVQAGGSLRLSCAASGSIFVKYTMGWYRQAPGKERELVAAISFRGGSTYYADSVKGRFTISRDNAKNTVYLQINSLKPEDTAVYYCNADGGWWPEYYWGQGTQVTVSS | low polyreactivity
QVQLVESGGGLVQAGGSLRLSCAASGSIFVNNAMGWYRQAPGKERELVAAISSRGGSTYYADSVKGRFTISRDNAKNTVYLQMNSLKPEDTAVYYCAAEYDGPYYSFYPEQRYYWGQGTQVTVSS | low polyreactivity
QVQLVESGGGLVQAGGSLRLSCAASGSIFVNNAMGWYRQAPGKERELVAAISSRSSRTFYADSVKGRFTISRDNAKNTVYLQMNSLKPEDTAVYYCAKPGYLRPSRYDYWGQGTQVTVSS | high polyreactivity
QVQLVESGGGLVQAGGSLRLSCAASGSIFVPNAMGWYRQAPGKEREFVAAITRSGGRTYYADSVKGRFTISRDNAKNTVYLQMNSLKPEDTAVYYCAAPYGTYAYDYWGQGTQVTVSS | high polyreactivity
QVQLVESGGGLVQAGGSLRLSCAASGSIFVPYAMGWYRPAPGKERELVAAISWSGGSTYYADSVKGRFTISRDNAKNTVYLHMNSLKPEDTAVYYCAVRFRSYTSYYWIDYEYWGQGTQVTVSS | high polyreactivity
